# Laboratory results as given in patent publication US12351610B2, “Interferon regulatory factor 5 inhibitors and uses thereof” (THE FEINSTEIN INSTITUTES FOR MEDICAL RESEARCH, priority 2019, dated 2025).
# “Also recorded” adds a separate entry of the source.
# What was measured:
# [1] = biological target: T1, human full-length recombinant IRF5 variant 5 (isoform V5) (Homo sapiens, UniProt Q13568); assay: Surface plasmon resonance (SPR) binding of peptides to immobilized full-length recombinant IRF5; settings: peptides 1 μM, IRF5 immobilized on chip, 25° C.
# T1 construct: Full-length recombinant IRF5 protein (ab173024, Abcam) was immobilized onto a CMS series chip; purchased Abcam ab173024
# T1 sequence (Q13568 1-514 isoform Q13568-2): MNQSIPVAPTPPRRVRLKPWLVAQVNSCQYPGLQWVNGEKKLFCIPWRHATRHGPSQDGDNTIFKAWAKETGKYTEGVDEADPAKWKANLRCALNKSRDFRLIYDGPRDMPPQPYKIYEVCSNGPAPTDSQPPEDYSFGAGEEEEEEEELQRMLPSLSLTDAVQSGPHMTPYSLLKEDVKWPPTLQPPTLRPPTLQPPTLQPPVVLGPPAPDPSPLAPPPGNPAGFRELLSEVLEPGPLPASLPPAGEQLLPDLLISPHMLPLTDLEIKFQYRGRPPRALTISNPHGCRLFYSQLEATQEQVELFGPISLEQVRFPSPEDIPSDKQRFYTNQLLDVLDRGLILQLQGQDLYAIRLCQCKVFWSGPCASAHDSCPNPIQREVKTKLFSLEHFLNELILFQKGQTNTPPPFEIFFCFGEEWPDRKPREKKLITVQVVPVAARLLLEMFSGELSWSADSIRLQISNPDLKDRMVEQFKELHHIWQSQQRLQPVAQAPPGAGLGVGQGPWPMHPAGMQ
# Procedure: Surface Plasmon Resonance (SPR) Analysis. The Biacore T200 (GE Healthcare, UK) was used for real-time binding interaction studies. Full-length recombinant IRF5 protein (ab173024, Abcam) was immobilized onto a CMS series chip (GE Healthcare) by diluting to a concentration of 20 μg/mL in 10 mM acetate buffer (pH=5.0). A 1:1 mixture of N-hyrdoxysuccinimide and N-ethyl-N-(dimethyaminopropyl)carbodiimide was used to activate 2 flow-cells of the CMS chip. […] The sample flow-cell was injected with the diluted IRF5 at a flow rate of 10 μL/min by manual injection. The IRF5 injection was stopped when the SPR reached ˜490 RU. For binding of peptides to IRF5, the analytes (peptides) were diluted to 1 μM in 1×PBS+0.05% Tween20 buffer, filtered (0.22 μm) and injected over the IRF5 immobilized chip at a flow rate of 30 μL/min for 60 s at 25° C. with a dissociation time set for 1 min. Binding experiments were conducted in 1×PBS+0.05% Tween20 as the running buffer; at least 3 independent experiments were performed.
# Peptides (1 μM) were tested for their ability to directly interact with human full-length recombinant IRF5 variant 5 (isoform V5) by surface plasmon resonance (SPR) analysis. DWEYS (SEQ ID NO:23) peptide served as a non-targeted control and CPP1 (SEQ ID NO:4) as a control for the cell permeable sequence. […] A shared similarity between N5-1 (SEQ ID NO:20) and N5-2 (SEQ ID NO:17) is their relatively stronger positive charge, as compared to the others (Table 1).
# Human IRF5 contains two nuclear localization signals (NLS), one in the N-terminus and one in the C-terminus (27). N5-1 (SEQ ID NO:20) corresponds to the N-terminal NLS (PRRVRLK) (SEQ ID NO:24). To test whether any NLS is capable of binding to IRF5, we generated C5-2 (SEQ ID NO:22) that corresponds to the C-terminal NLS of IRF5 (PREKKLI) (SEQ ID NO:25) and examined binding by SPR.
# [2] = test system: IRF5 nuclear translocation in monocytes (Mo) of PBMC from healthy donors; assay: R848-induced IRF5 nuclear translocation in PBMC monocytes (CD14+), imaging flow cytometry; type: cell-based, human; settings: 10 μM peptide pre-incubation 1 h, then 500 ng/mL R848 for 2 h
# Procedure: (§1) Imaging Flow Cytometry. Imaging flow was performed as previously described on the Amnis Imagestream (19). Briefly, PBMCs from healthy donors were isolated and treated with inhibitor for 1 h, subsequently stimulated with R848 (500 ng/mL) or 2% SLE serum for 2 h, followed by staining for CD19 and CD14. PBMC were then fixed overnight in 1% paraformaldehyde and then permeabilized (19). Permeabilized cells were blocked in 5% BSA solution and stained for intracellular IRF5 (Abcam Catalog #: ab193245) or phospho(pSer462)IRF5 and FITC-conjugated secondary antibody (Abcam Catalog #: ab6896). Prior to acquisition, DRAQS dye was added at a 1:50 dilution. PBMC from SLE patients were only surface-stained and permeabilzed for intracellular IRF5 and DRAQS staining. Murine PBMC were stained similarly for intracellular IRF5 (Abcam Catolog #: 181553) (58) and APC-conjugated secondary antibody (BioLegend). Images were acquired on the ImageStream using the 40× objective. Nuclear translocation was quantified in the Amnis IDEAS software suite. Briefly, cells were first filtered through the brightfield area vs. brightfield aspect ratio gate to exclude non-viable and doublet events. Following which a similar gate of the DRAQS nuclear channel was used. This added an extra measure of stringency for cell viability. Images were gated on either CD14^+IRF5^+, CD19^+IRF5^+, or CD123^+BDCA2^+IRF5^+ events, followed by gating on images with a Gradient RMS of greater than 20 on the DRAQS channel. This was done to select images with a high level of clarity. Finally, IRF5 nuclear translocation was determined through use of the similarity score feature contrasting IRF5 staining with DRAQS staining. A similarity score≥2 was considered a translocation event.
# Peptide mimetics inhibit TLR7-induced IRF5 nuclear translocation. We next sought to determine whether in vitro binding data would translate into IRF5 cellular inhibition. IRF5 is a key downstream mediator of TLR7-induced cytokine expression and TLR7 signaling has been implicated in SLE pathogenesis (2,44-47). We examined the ability of IRF5 peptide mimetics to inhibit IRF5 nuclear translocation following stimulation of PBMC with R848. […] For the initial screening, isolated PBMC from healthy donors were pre-incubated in the presence of mock (PBS), or 10 μM CPP1 (SEQ ID NO:4), N5-1 (SEQ ID NO:20), N5-2 (SEQ ID NO:17), N5-3 (SEQ ID NO:18) or C5-2 (SEQ ID NO:22) inhibitor for 1 h followed by stimulation with 500 ng/mL of R848 for 2 h. Cells were surface-stained with anti-CD14 (monocytes or Mo) and anti-CD19 (B cells) antibodies, then permeabilized and stained for intracellular IRF5 and DRAQ5. As expected, R848 induced significant IRF5 nuclear translocation in mock-incubated Mo (2) and B cells.
# [3] = test system: IRF5 nuclear translocation in B cells of PBMC from healthy donors; assay: R848-induced IRF5 nuclear translocation in PBMC B cells (CD19+), imaging flow cytometry; type: cell-based, human; settings: 10 μM peptide pre-incubation 1 h, then 500 ng/mL R848 for 2 h
# Procedure: as §1, with “This added an extra measure of stringency for cell viability. Images were gated on either CD14^+IRF5^+, CD19^+IRF5^+, or CD123^+BDCA2^+IRF5^+ events, followed by gating on images with a Gradient RMS of greater than 20 on the DRAQS channel. This was done to select images with a high level of clarity.” left out, “A similarity score≥2 was considered a translocation event.” left out
Substance,binding affinity for IRF5 [1],effect on R848-induced IRF5 nuclear translocation in Mo [2],effect on R848-induced IRF5 nuclear translocation in B cells [3]
DRQIKIWFQNRRMKWKKRHATRHG (cell penetrating and targeting sequence) [Peptide N5-2],strongest binding affinity for IRF5; also recorded: directly bind to the full-length inactive IRF5 monomer,significant reduction,
DRQIKIWFQNRRMKWKKGPRDMPP (cell penetrating and targeting sequence) [Peptide N5-4],N5-3 (SEQ ID NO:18)>N5-4 (SEQ ID NO:19)>CPP1 (SEQ ID NO:4),,
DRQIKIWFQNRRMKWKKEGVDEAD (cell penetrating and targeting sequence) [Peptide N5-5],no affinity for IRF5,,
"DWEYS (listed as Homo sapiens) [peptide that served as a non-targeted control, reference compound]",no affinity for IRF5,,
"DRQIKIWFQNRRMKWKK (listed as Drosophila antennapedia) [CPP1, reference compound]",minimal binding affinity,no significant effect,no significant effect
DRQIKIWFQNRRMKWKKKSRDFRL (cell penetrating and targeting sequence) [Peptide N5-3],binding to a slightly lesser extent; also recorded: directly bind to the full-length inactive IRF5 monomer,significant reduction,
DRQIKIWFQNRRMKWKKPRRVRLK (cell penetrating and targeting sequence) [Peptide N5-1],strongest binding affinity for IRF5; also recorded: directly bind to the full-length inactive IRF5 monomer,significant reduction,
